From US20240263161A1 (UNIVERSITY OF COPENHAGEN, published 2024) come the findings set out here.

Test [1] deals with secreted purified MUC1 TR reporter, WT glycoform (core2 sialylated O-glycans, HEK293 WT) (human) (UniProt P15941). Kind of test: cell-based or functional assay.
For test [2], the target named is membrane bound MUC1 TR reporter on HEK293 WT cells (core2 O-glycans) (human) (UniProt P15941). Briefly: cell-based or functional assay.
The target in test [3] is T1, secreted purified MUC5AC TR reporter, Tn glycoform (human, UniProt P98088 2708-2850).
T1 sequence: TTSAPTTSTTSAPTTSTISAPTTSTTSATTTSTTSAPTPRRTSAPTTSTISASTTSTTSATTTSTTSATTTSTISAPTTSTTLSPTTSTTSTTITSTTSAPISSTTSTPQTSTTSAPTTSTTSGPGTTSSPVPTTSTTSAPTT
Kind of test: microscale thermophoresis (MST), […].

Test [4] addresses secreted purified MUC1 TR reporter, WT glycoform (core2 sialylated O-glycans, HEK293 WT) (human, UniProt P15941 121-260). Kind of test: microscale thermophoresis (MST), […].
Test [5] concerns the target T2, secreted purified MUC5AC TR reporter, WT glycoform (core2 sialylated O-glycans, HEK293 WT) (human, UniProt P98088 2708-2850).
T2 sequence: T1 sequence
Kind of test: microscale thermophoresis (MST), […].

Test [6] deals with secreted purified MUC21 TR reporter, Tn glycoform (human, UniProt Q5SSG8 130-278). Kind of test: ELISA with purified secreted reporters.
Sequence of secreted purified MUC21 TR reporter, Tn glycoform (Q5SSG8 130-278): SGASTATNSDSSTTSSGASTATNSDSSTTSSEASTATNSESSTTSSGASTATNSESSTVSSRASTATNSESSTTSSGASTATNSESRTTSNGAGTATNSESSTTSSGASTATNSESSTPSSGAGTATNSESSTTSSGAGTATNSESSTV

In general, Kd refers to the equilibrium constant for the complex coming apart. The low end stands for higher affinity, the high end for lower affinity.

Sequence of secreted purified MUC1 TR reporter, WT glycoform (core2 sialylated O-glycans, HEK293 WT) (P15941 121-260): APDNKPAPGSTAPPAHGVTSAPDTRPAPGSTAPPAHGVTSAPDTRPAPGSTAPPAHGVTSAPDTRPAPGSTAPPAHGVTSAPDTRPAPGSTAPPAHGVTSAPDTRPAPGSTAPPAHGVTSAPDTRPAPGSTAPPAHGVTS
Sequence of membrane bound MUC1 TR reporter on HEK293 WT cells (core2 O-glycans) (human) (P15941 121-260 limits assumed): as the sequence (P15941 121-260) above
Sequence of secreted purified MUC1 TR reporter, WT glycoform (core2 sialylated O-glycans, HEK293 WT) (human) (P15941 121-260): as above

Molecule “StcE (Secreted protease of C1 esterase inhibitor) wildtype, recombinant (from UniProt O82882 36-898) (enzyme)” gave a cleavage, dose titration with the isolated reporter (SDS-PAGE) in test [1] greater than 10 µg/mL. The same molecule yielded a cleavage, dose titration on cells (flow cytometry) in test [2] greater than 10 µg/mL.

B1: AlexaFluoro647 labelled MBP-X409 (other)
chain: EGCIVSVNSGKRYCLPVGQRSGYSLPDWIVGQEVYVDSGAKAKVLLSDWDNLSYNRIGEFVGNVNPADMKKVKAWNGQYLDFSKPRSMRVVYK
Consider B1, for which the results for the Kd in test [3], in test [4] and in test [5] were 37 nM, 2600 nM and 14 nM, respectively. The “fold lower binding affinity (against MUC5Ac)” value in test [4] is greater than 1000 fold.

B2: X409 module of Escherichia coli O157:H7 StcE (tags of the construct not stated) (other)
chain: B1 chain
As for B2, the binding result in test [6] is on record as “binds”.
